Among the data in patent US20240043820 are activity (fold vs WT SpCas9) values, retold here.

For data set [1], the target named is SpCas9 Mut 4110 N767E,Q771R,K772Q,K775D,R780K,Q844R,L847M,K848T,D850N,I852F,K913E,G915R,F916W,I917V,V922M (Streptococcus pyogenes) (UniProt Q99ZW2). Kind of data set: cell_activity. The conditions noted are these: yeast survival assay; PAM not stated.
Data set [2] has as its target SpCas9 Mut 2.2 (TurboCas9) V842L,Q844R,F846Y,L847M,I852F (Streptococcus pyogenes) (UniProt Q99ZW2). Kind of data set: cell_activity. The conditions noted are these: HEK293T; 5% alleles unedited vs 36% for WT; PAM not stated.

As for HIS3 gRNA ; HIS3 target site, in data set [1], the activity (fold vs WT SpCas9) was found to be 3.9.

VEGFA gRNA ; VEGFA target site: the activity (fold vs WT SpCas9) in data set [2] was determined as 1.5.

As to ADE2 gRNA ; ADE2 target site, in data set [1], the activity (fold vs WT SpCas9) was 2.
